The target in this test is T1, human IL-1R3 expressed on cells (SK-MEL-30 and other human cell lines) (human, UniProt Q9NPH3 21-570).
T1 construct: whole, on cells; also called hIL1R3; IL-1RAcP
T1 sequence (looked up): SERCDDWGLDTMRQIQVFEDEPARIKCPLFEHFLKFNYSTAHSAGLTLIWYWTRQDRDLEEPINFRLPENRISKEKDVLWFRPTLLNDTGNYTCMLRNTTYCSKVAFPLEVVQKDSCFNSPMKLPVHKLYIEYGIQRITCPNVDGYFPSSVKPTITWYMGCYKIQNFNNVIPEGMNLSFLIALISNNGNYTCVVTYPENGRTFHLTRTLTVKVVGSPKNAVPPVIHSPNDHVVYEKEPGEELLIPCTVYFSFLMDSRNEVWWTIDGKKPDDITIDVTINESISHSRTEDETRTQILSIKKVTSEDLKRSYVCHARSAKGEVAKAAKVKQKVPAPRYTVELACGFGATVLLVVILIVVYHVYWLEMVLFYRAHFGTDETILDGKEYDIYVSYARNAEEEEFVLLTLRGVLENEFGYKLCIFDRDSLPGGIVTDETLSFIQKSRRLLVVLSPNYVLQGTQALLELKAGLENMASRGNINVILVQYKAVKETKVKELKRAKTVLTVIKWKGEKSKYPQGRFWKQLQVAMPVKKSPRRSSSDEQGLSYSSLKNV
Kind of test: flow cytometry on the high-IL-1R3-expressing cell line SK-MEL-30. A general note: In flow cytometry, cells or beads pass a laser one at a time.

As a reminder, the EC50 is the concentration at which the effect is half-maximal. A lower EC50 goes with greater potency.

B1: MAB-16-0030, humanized anti-IL-1R3 IgG1-LALA antibody (antibody, V domains shown)
VH: EVQLEESGGRLVQPGTSLRLSCAVSGFSLSSYDMSWVRQAPGKGLEWVSTIYIGGTTAYASWPKGRFTISKTNSKNTLYLQMNSLRAEDTAVYFCARLQGANYYNSLALWGQGTLVTVSS
VL: DVQMTQSPSSLSASVGDRVTITCQASQSIYSFLSWYQQKPGQAPKLLIYAASDLESGVPSRFSGSGSGTDFTLTISSLQPEDFATYYCQCNYIIDYGAFGQGTKVVIKR
notes: Humanized IgG1 with L234A and L235A (IgG1-LALA); also called anti-hIL-1R3 antibody MAB-16-0030; IgG1-LALA version of MAB-16-0030
For the molecule B1, the EC50 came to 0.307 µg/mL.

Values taken from patent EP4803542A2 (Sanofi Biotechnology, dated 2026).
